{"source": "paper PMC11910882", "binders": {"B1": {"name": "pSlABCG44-WT (dsDNA)", "DNA 1": "GAGTGAATTTGTTTGGTTCAATTTTGTCC", "DNA 2": "GGACAAAATTGAACCAAACAAATTCACTC"}}, "molecular_target": "SlNSP2-GST (Solanum lycopersicum (tomato), UniProt A0A3Q7ITG8 1-487)", "test": "EMSA", "data": [{"binder": "B1", "values": [{"measurement": "binding result", "value": "no binding"}]}]}
